Test results: patent publication US20240042051A1 (Novartis, published 2024)

T1: hCD48EC:mouse-Ig construct #2248 (ENYKQ modified into GSSKQ) (human, UniProt P09326 27-220, limits assumed)
T1 construct: extracellular domain; not shown: mouse IgG1 part of the fusion
T1 sequence (looked up): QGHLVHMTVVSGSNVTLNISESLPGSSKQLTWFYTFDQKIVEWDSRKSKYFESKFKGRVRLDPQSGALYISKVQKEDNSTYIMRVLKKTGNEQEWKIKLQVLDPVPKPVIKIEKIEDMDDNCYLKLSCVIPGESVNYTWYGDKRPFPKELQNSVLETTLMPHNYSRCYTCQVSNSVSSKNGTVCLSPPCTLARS

T2: Human CD48 (recombinant, humanCD48 aa29-220) (human, UniProt P09326 29-220)
T2 construct: SPR analyte in solution; also called analyte human CD48; not shown: C-terminal tag (hFc1P, APP6-Avi or His)
T2 sequence: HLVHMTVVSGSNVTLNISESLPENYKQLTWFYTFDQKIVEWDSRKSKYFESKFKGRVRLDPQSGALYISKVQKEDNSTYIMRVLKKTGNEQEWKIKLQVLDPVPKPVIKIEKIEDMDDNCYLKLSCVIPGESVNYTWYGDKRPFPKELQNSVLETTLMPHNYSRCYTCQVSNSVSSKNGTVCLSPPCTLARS

B1: humanized CD48A (antibody, V domains shown)
VH: QVQLVQSGSELKKPGASVKVSCKASGYTFTDFGMNWVRQAPGQGLEWMGWINTFTGEPSYGNVFKGRFVFSLDTSVSTAYLQISSLKAEDTAVYYCARRHGNGNVFDSWGQGTLVTVSS
VL: EIVLTQSPDFQSVTPKEKVTITCRASQSIGSNIHWYQQKPDQSPKLLIKYTSESISGVPSRFSGSGSGTDFTLTINSLEAEDAATYYCQQSNSWPLTFGGGTKVEIKR
notes: Murine CD48A is clone MEM-102; also called control antibody CD48A
B2: NY938 (antibody, human IgG1, kappa, V domains shown)
VH: QVQLVQSGAEVKKPGASVKVSCKASGYTFTEYTMHWVRQAPGQGLEWMGGINPDTGDTSYNQKFTGRATLTVDKSTSTAYMELSSLRSEDTAVYYCARAQFWTTPRFAYWGQGTLVTVSS
VL: DIQMTQSPSSLSASVGDRVTITCKASQDVGTAVAWYQQKPGKVPKLLIYWASTRHTGVPSRFSGSGSGTDFTLTISSLQPEDVATYYCQQYSTYPITFGQGTKLEIKR
notes: also called anti-CD48 antibody NY938; NY938 IgG
B3: NY920 (antibody, human IgG1, kappa, V domains shown)
VH: EVQLLESGGGLVQPGGSLRLSCAASGFTFSSFAMSWVRQAPGKGLEWVSAISGFGGSTYYADSVKGRFTISRDNSKNTLYLQMNSLRAEDTAVYYCARQFWEDQPFYFDYWGQGTLVTVSS
VL: not shown
notes: also called anti-CD48 antibody NY920; candidate antibody NY920

Assays:
[1] = molecular target: T1, hCD48EC:mouse-Ig construct #2248 (ENYKQ …); assay: ELISA, HEK293T culture supernatant (1:10) with the CD48-mouse Ig construct, antibody at 25, 250 and 500 ng/mL, detection goat anti-mouse IgG (H+L) HRP, Mean OD450-570
Source text: Non-mutated CD48-mouse IgG fusion peptide served as positive control and non-transfected cell supernatant as negative control.

[2] = molecular target: T2, Human CD48 (recombinant, humanCD48 …); assay: SPR Biacore T200, antibody captured on protein A chip, CD48 as analyte, 25 °C, 1:1 model
Experimental: The anti-CD48 antibodies were diluted at 5 μg/ml and injected on flow cells 2 and 4 for 20 sec at 10 μl/min. Capture level for all antibodies was 370-440 RU. Flow cells 1 and 3 were left blank (no antibody captured) and used as a reference surface. Human and cynomolgus CD48 served as analytes in solution. […] After each cycle of antibody capture and analyte injection, the chip surface was regenerated with 10 mM Glycine-HCl pH 1.5 (Cytiva, ordering #BR100354) for 2×30 s at a flow rate of 50 μl/min. Three runs with duplicate measurements and buffer blank injections were performed. Measurements were executed at 25° C. and data collected at a rate of 10 Hz.
[…] The raw data were double referenced, i.e. the response of the measuring flow cells was corrected for the response of the reference flow cells (no antibody captured), and in a second step the response of a blank injection (buffer) was subtracted. Finally, the sensorgrams were fitted by applying a 1:1 interaction model with a constant fit of RI (0) and a global fit for Rₘₐₓ. Kinetic rate constants (kₐ, kd) and equilibrium dissociation constants (KD) were calculated. Data were processed separately for each run. The generated values were used to calculate average values and standard deviations of the respective equilibrium dissociation constants and the kinetic rate constants.

| Binder | binding result [1] | Kd [2] [nM] | koff [2] [s⁻¹] | kon [2] [M⁻¹ s⁻¹] |
| --- | --- | --- | --- | --- |
| B1 | no binding (tested: 500 ng/mL) | – | – | – |
| B2 | – | 0.5 | 0.00013 | 250000 |
| B3 | – | 10 | 0.00074 | 72000 |
